# Measured values taken from US20220340682A1 (Sanofi, published 2022).
# Substitutions are numbered along the chain they refer to.
# B1: antibody MAb4 (antibody, IgG1, V domains shown)
# VH: EVQLVESGGGLVKPGGSLKLSCAASGFTFSSYDMSWVRQTPEKRLEWVAFISSYGGRTYYADTVKGRFTISRDNAKNTLYLQMSSLKSEDTAMFYCAAHYFGTSGPFAYWGQGTLVTVSA
# VL: DIQMTQSPASLSASVGETVTITCRASENIYSYFAWYQQKQGKSPQLLVYNAKILAEGVPSRFSGSGSGTQFSLKINSLQPEDFGTYYCQHHYGIPFTFGSGTKLELK
# notes: Murine monoclonal from hybridoma, IgG1, kappa
# B2: antibody MAb5 (antibody, IgG1, V domains shown)
# VH: ELQLVESGGVLVKPGGSLKLSCAASGFAFSSYDMSWVRQTPEKRLEWVTYINSGGGITYYPDTVKGRFTISRDNARNTLYLQMSSLKSEDTAIYYCTAHYFGSSGPFAYWGQGTLVTVSA
# VL: B1 VL with F33L, I53T, A55T, T85S, I94T, L106I
# notes: as for B1
# B3: antibody MAb1 (antibody, IgG1, V domains shown)
# VH: EVMLVESGGGLVKPGGSLKLSCAASGFTFSSYAMSWVRQTPEKRLEWVATISSGGSYIYYLDSVKGRFTISRDNAKNTLYLQMSSLRSEDTAMYYCARPAYYGNPAMDYWGQGTSVTVSS
# VL: DILMTQSQKFMSTSVGDRVSVTCKASQNVGTNVAWYQQKPGQSPKPLIYSASYRYSGVPDRFTGSGSGTDFTLTISNVQSEDLAEYFCQQYNSYPLYTFGGGTKLEIK
# B4: antibody MAb3 (antibody, IgG1, V domains shown)
# VH: EVKLVESGGGLVKPGGSLTLPCAASGFTFSRYAMSWVRQTPEKRLEWVASISSGGDTYYPDSVKGRFTVSRDNARNILFLQMSSLRSEDTGMYYCARVNYYDSSFLDWWGQGTTLTVSS
# VL: B3 VL with L3V, K9R, S14L, V15E, P46A, S93N
# notes: as for B1
# B5: huMAb2-3 (antibody, human IgG1, kappa, V domains shown)
# VH: EVQLQESGPGLVKPGGSLSLSCAASGFVFSSYDMSWVRQTPERGLEWVAYISSGGGITYAPSTVKGRFTVSRDNAKNTLYLQMNSLTSEDTAVYYCAAHYFGSSGPFAYWGQGTLVTVSS
# VL: DIQMTQSPASLSASVGDRVTITCRASENIFSYLAWYQQKPGKSPKLLVYNTRTLAEGVPSRFSGSGSGTDFSLTISSLQPEDFATYYCQHHYGTPFTFGSGTKLEIKR
# notes: Humanized MAb2, human IgG1 / Ckappa; also called MAb2_VL1cVH1a-IgG1
# B6: huMAb2-1 (antibody, V domains shown)
# VH: B5 VH with G44R, A60F, V93I, S120A
# VL: DIQMTQSPASLSASVGDTVTITCRASENIFSYLAWYQQKPGKSPKLLVYNTKTLAEGVPSRFSGSGSGTQFSLTISSLQPEDFGSYYCQHHYGTPFTFGSGTKLEIK
# notes: Humanized MAb2 (VL1 + VH1) fused to human IgG1 and human Ckappa constant domains; also called MAb2_VL1VH1-IgG1; MAb2VL1VH1-IgG1
# B7: huMAb2-4 (antibody, human IgG1, kappa, V domains shown)
# VH: B5 VH with G44R, A60F, V93I, S120A
# VL: B5 VL with R18T, D70Q, A84G, T85S
# notes: Humanized MAb2, human IgG1 / Ckappa; also called MAb2_VL1d VH1-IgG1; MAb2_VL1dVH1-IgG1
# B8: chMAb2 (antibody, human IgG1, kappa, V domains shown)
# VH: EVQLQESGGVLVKPGGSLKLSCAASGFVFSSYDMSWVRQTPEKRLEWVAYISSGGGITYFPDTVQGRFTVSRDNAKNTLYLQMNSLKSEDTAIYYCAAHYFGSSGPFAYWGQGTLVTVSA
# VL: B5 VL with D17E, R18T, P40Q, K45Q, R52K, D70Q, T74K, S76N, A84G, T85S
# notes: Chimeric, human IgG1, Ck isotype; also called MAb2-IgG1; chimeric MAb2
# B9: huMAb2-2 (antibody, V domains shown)
# VH: B5 VH
# VL: B6 VL with T18R, Q70D, G84A, S85T
# notes: Humanized MAb2 (VL1a + VH1a) fused to human IgG1 and human Ckappa constant domains; also called MAb2_VL1aVH1a-IgG1; MA2_VL1aVH1a-IgG1
# Target: T1, human CEACAM5 expressed on the surface of tumor cells (human, UniProt P06731 35-685)
# T1 construct: Endogenous CEACAM5 of human tumor cells; also called hCEACAM5 on MKN45 cells; CEACAM5 on CR-IGR-034P primary colon tumor cells
# T1 sequence: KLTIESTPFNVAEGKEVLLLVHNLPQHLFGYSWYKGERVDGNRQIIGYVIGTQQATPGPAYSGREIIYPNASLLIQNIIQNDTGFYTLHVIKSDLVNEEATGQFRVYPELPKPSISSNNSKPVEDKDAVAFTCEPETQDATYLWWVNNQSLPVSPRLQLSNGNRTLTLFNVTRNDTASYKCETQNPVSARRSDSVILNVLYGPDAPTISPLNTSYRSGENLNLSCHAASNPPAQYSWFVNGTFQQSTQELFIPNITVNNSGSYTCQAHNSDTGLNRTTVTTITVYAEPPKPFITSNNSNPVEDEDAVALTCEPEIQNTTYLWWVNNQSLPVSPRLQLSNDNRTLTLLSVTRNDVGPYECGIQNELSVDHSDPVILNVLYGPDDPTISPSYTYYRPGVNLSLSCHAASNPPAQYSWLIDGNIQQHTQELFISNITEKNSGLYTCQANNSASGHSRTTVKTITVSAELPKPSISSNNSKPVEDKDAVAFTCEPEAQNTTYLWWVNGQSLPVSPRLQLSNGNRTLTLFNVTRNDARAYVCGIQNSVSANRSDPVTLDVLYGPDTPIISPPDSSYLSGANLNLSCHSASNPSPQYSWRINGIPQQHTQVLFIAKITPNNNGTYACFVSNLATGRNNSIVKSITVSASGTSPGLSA
# Experiment: apparent KD, flow cytometry on CR-IGR-034P primary colon tumor cells
# Procedure: Advanced human primary colon tumor CR-IGR-034P (Julien et al., Clin Cancer Res Oct. 1, 2012 18:5314-5328) was obtained from Patient-derived xenograft in mice. Tumor CR-IGR-034P was enzymatically dissociated using collagenase Type IV (Invitrogen; #17104-019) and deoxyribonuclease I (Invitrogen; #18047-019) for 1 h at […], Cell viability was estimated by Viacount application using Guava® easyCyte™ 8HT Flow Cytometry System. […] 100 μL/well of goat anti-mouse IgG conjugated with Alexa647 (Invitrogen; # A2135) or goat anti-human IgG conjugated with Alexa488 (Invitrogen; # A11013) was added for 45 min at 4° C. and washed three times with PBS 1% BSA. The antibody binding was evaluated after centrifugation and resuspension of cells by adding 200 pliwell PBS 1% BSA and read using Guava® easyCyte™ 8HT Flow Cytometry System. Apparent KD and EC50 values were estimated using BIOST@T-BINDING and BIOST@T-SPEED softwares, respectively.
row,Kd [nM],Binder
1,0.16,B1
2,0.5,B2
3,1.92,B3
4,1.01,B4

# Target: T2, hCEACAM8, human CEACAM8 ECD (35-332) (human, UniProt P31997 35-332)
# T2 construct: With 24 amino acid extension containing a His-Tag
# T2 sequence: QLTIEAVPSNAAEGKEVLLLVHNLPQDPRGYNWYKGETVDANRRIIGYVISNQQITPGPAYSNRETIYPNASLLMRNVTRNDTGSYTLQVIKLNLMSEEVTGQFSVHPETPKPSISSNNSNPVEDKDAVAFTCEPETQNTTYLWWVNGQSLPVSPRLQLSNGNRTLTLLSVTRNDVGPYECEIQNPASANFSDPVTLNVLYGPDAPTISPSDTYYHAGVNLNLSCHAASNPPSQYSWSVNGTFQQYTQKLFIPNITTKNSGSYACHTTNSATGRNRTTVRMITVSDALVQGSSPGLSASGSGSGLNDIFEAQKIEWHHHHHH
# Experiment: ELISA
row,percentage of binding compared to full binding with human CEACAM5 [%],Binder
1,0.6,B5
2,0.9,B6
3,1.4,B7
4,0.6,B8
5,0.5,B9

# Target: T3, hCEACAM5, human CEACAM5 ECD (35-685) (human, UniProt P06731 35-685)
# T3 construct: produced in HEK293; also called human CEACAM5 protein; human CEACAM5 extracellular domain
# T3 sequence: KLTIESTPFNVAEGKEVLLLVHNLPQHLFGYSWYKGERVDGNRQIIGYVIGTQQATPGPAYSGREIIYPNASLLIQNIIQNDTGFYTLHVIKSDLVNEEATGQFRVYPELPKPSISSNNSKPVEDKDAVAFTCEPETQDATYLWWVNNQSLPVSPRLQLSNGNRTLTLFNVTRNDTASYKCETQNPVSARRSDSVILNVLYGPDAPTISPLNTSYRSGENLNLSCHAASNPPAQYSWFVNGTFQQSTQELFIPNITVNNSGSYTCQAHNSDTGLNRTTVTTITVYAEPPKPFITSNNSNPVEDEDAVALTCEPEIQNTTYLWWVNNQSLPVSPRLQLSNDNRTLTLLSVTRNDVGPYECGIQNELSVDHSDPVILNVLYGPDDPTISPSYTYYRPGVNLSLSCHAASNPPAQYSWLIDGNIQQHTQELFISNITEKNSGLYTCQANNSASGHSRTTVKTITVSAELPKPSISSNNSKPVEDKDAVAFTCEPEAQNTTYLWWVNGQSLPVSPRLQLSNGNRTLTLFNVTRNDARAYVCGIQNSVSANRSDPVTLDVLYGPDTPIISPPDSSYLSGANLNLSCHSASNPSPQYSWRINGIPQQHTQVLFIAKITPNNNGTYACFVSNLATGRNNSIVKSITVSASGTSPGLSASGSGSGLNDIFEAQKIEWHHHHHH
# Experiment: ELISA
row,percentage of binding compared to full binding with human CEACAM5 [%],Binder
1,100,B5
2,100,B6
3,100,B7
4,100,B8
5,100,B9

# Target: T4, hCEACAM7, human CEACAM7 ECD (36-248) (human)
# T4 construct: With 24 amino acid extension containing a His-Tag
# T4 chain: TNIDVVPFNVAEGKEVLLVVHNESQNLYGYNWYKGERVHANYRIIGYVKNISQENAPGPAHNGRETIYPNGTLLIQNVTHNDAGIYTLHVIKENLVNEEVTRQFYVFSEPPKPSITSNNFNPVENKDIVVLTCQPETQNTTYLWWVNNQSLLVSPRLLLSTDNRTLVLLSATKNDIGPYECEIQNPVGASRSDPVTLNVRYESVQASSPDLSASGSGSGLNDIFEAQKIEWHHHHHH
# Experiment: ELISA
row,percentage of binding compared to full binding with human CEACAM5 [%],Binder
1,0.3,B5
2,0.3,B6
3,0.3,B7
4,0.3,B8
5,0.3,B9
